Data on 2 molecules can be found in article PMC5374546.

The target of assay [1] is Fcε3-4 Fcε3-4 (Homo sapiens) (UniProt P01854). Description: sedimentation equilibrium. The conditions noted are these: cited from earlier work.
Assay [2] deals with IgE-Fc (Val224-Lys547, with glycosylation-site double mutation N265Q and N371Q) (human). Description: ITC; 260 uM derCD23 in the syringe titrated into 12.5 uM IgE-Fc dimer in the cell; 25 mM Tris-HCl pH 7.4, 125 mM NaCl, 4 mM CaCl2; 25 °C; iTC200; two-site (2:1) binding model.

Chain of UniProt P01854 (P01854 209-426): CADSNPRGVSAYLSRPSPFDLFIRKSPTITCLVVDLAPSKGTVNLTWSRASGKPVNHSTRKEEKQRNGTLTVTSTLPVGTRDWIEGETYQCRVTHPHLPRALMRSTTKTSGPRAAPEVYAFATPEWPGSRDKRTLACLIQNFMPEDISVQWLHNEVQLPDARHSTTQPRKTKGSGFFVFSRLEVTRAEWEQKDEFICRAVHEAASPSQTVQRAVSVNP

Consider derCD23 derCD23 (from UniProt P06734), for which the Kd in assay [1] is 10 µM.

B1: derCD23 (soluble monomeric lectin-like head domain of human CD23, Ser156-Glu298) (domain or fragment)
chain: SGFVCNTCPEKWINFQRKCYYFGKGTKQWVHARYACDDMEGQLVSIHSPEEQDFLTKHASHTGSWIGLRNLDLKGEFIWVDGSHVDYSNWAPGEPTSRSQGEDCVMMRGSGRWNDAFCDRKLGAWVCDRLATCTPPASEGSAE
In assay [2], B1 showed a KD1 (site 1 of the two-site model) of 1.2 µM, a KD2 (site 2 of the two-site model) of 14.4 µM, a dH1 (site 1 of the two-site model) of -7.2 kcal/mol and a dH2 (site 2 of the two-site model) of -3.7 kcal/mol. In assay [2], the stoichiometry N (derCD23 per IgE-Fc dimer) amounted to 2.
